Earlier results as cited in patent US20020019334A1, “Nutritional intervention composition for enhancing and extending satiety” (priority 2000, published 2002).

Conditions: injection, humans

B1: Cholecystokinin (peptide, UniProt P06307 21-115, looked up)
Cholecystokinin: QPVPPADPAGSGLQRAEEAPRRQLRVSQRTDGESRAHLGALLARYIQQARKAPSGRMSIVKNLQNLDPSHRISDRDYMGWMDFGRRSAEEYEYPS
modifications: Cholecystokinin
- decrease of food intake: 16%
